Laboratory results from US10513545B2, “Fusion polypeptide in which anti-inflammatory polypeptide and ferritin monomer fragment are bound and pharmaceutical composition for preventing and treating inflammatory diseases, containing same as active ingredient” (KYUNGPOOK NATIONAL UNIVERSITY INDUSTRY-ACADEMIC COOPERATION …, priority 2015, dated 2019).
Read-outs that look alike come from different tables or passages of the source.

Tests used:
PAR-1 = PAR-1 cleavage assay in transfected HUVECs (ALP activity); format: cell-based; conditions: FIG. 13
Procedure: HUVECs at 90% confluence in 24-well plates were transiently transfected with pRc/RSV containing ALP-PAR-1-TF cDNA in antibiotic-free Opti-MEM medium using Lipofectamine (Invitrogen) according to the manufacturer's instruction. On the following day, cells were washed and incubated in serum-free medium for 5 h. Cells were then incubated for an additional hour with thrombin, TRAP, TFG, or TFMG. Conditioned medium was collected and centrifuged to remove cellular debris. Supernatant was collected, and ALP (alkaline phosphatase) activity was measured using EnzoLyte™ p-nitrophenyl phosphate alkaline phosphatase assay kit (AnaSpec, San Jose, Calif.) according to the manufacturer's instructions.

soluble EPCR (sEPCR) [1] = target: T1, soluble EPCR (sEPCR) (Homo sapiens, UniProt Q9UNN8); conditions: in an aqueous solution; read-out: previously reported binding affinity for PC to sEPCR; cited from earlier work
T1 construct: 96-well flat microtiter plates were coated with soluble EPCR
T1 sequence (Q9UNN8 18-210 limits assumed): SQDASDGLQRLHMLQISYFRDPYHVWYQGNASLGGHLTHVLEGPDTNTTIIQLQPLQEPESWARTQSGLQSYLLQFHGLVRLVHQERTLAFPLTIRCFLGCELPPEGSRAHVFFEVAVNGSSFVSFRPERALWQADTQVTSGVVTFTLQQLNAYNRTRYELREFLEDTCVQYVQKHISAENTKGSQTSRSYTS

soluble EPCR (sEPCR) [2] = target: T1, soluble EPCR (sEPCR); test: solid-phase ELISA for binding affinity to soluble EPCR; conditions: FIG. 9, read-out: Kd(app) for the interaction with sEPCR
Procedure: 9. Enzyme-Linked Immunosorbent Assays (ELISA) for Evaluating EPCR (Endothelial Protein C Receptor) Binding Affinity
To evaluate the interaction of the wild-type PC, PC-Gla peptides, TFG, and TFMG with EPCR, 96-well flat microtiter plates were coated with soluble EPCR in 20 mM carbonate-bicarbonate buffer (pH 9.6) containing 0.02% sodium azide, overnight at 4° C. After the plates were washed three times in TBS buffer (0.1 M NaCl, 0.02 M Tris-HCl, pH 7.4) containing 0.05% Tween 20, the plates were incubated with wild-type PC, PC-Gla peptides, TFG, and TFMG (7-1000 nM) diluted in the buffer for 1 h. After the plates were rinsed again, they were incubated with a goat anti-protein C polyclonal antibody (1:1000) for 1 h. Then, the plates were washed and incubated with rabbit anti-goat IgG (KPL, MD, 1:1000) for 1 h. After washing, the plates were incubated with 2,2′-azino-di(3-ethylbenzthiazoline-6-sulfonate) (ABTS; KPL, Gaithersburg, Md.). Colorimetric analysis was performed by measuring absorbance values at 405 nm.

| Kd (soluble EPCR (sEPCR) [2]) [nM] | Substance | PAR-1 cleavage activity (ability to activate PAR-1) (PAR-1) | Kd (soluble EPCR (sEPCR) [1]) [nM] |
| --- | --- | --- | --- |
| – | TRAP peptides: thrombin receptor agonist peptide TFLLRN (SEQ ID NO: 3), activates PAR-1 (Thrombin receptor agonist peptide (TRAP)) [reference compound] | strong similarities | – |
| ~31.3 | wild type PC: wild-type Protein C, comparator in the EPCR binding ELISA [reference compound] | – | 29 |
